Experimental data as given in the supplement of paper PMC10567573.

B1: EPB41L3 (parent)
chain: SMQCKVILLDGSEYTCDVEKRSRG

Variants of: B1
Assay: protein stability index of a GFP-peptide fusion (GPS, HEK-293T) (PSI 1-6); higher = more stable
Details: c terminus: a fixed tail appended
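Also: lentivirally expressed fusions sorted by FACS into six bins by GFP to DsRed ratio, PSI derived from sequencing read proportions per bin multiplied by bin number.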

| Variant | protein stability index |
| --- | --- |
| SMQCKVILLDGSEYTCLVEKRSRG [D17L] | 3.38 |
| SMQCKVILLDGSEYTCTVEKRSRG [D17T] | 2.59 |
| SMQCKVILLDGSEYTCPVEKRSRG [D17P] | 3.08 |
| SMQCKVILLDGSEYTCWVEKRSRG [D17W] | 2.06 |
| SMQCKVILLDGSEYTCRVEKRSRG [D17R] | 3.07 |
| SAQCKVILLDGSEYTCDVEKRSRG [M2A] | 3.24 |
| SHQCKVILLDGSEYTCDVEKRSRG [M2H] | 2.9 |
| SVQCKVILLDGSEYTCDVEKRSRG [M2V] | 2.6 |
| SFQCKVILLDGSEYTCDVEKRSRG [M2F] | 2.55 |
| STQCKVILLDGSEYTCDVEKRSRG [M2T] | 3.53 |
| SKQCKVILLDGSEYTCDVEKRSRG [M2K] | 3.24 |
| SLQCKVILLDGSEYTCDVEKRSRG [M2L] | 2.55 |
| SRQCKVILLDGSEYTCDVEKRSRG [M2R] | 2.72 |
| SMQCKVILLDGSEYTCDVEKRVRG [S22V] | 2.12 |
| SMQCKVILLDGSEYTCDVEKRNRG [S22N] | 3.47 |
| SMQCKVILLDGSEYTCDVEKRLRG [S22L] | 2.08 |
| SMQCKVILLDGSEYTCDVEKRDRG [S22D] | 2.52 |
| SMQCKVILLDGSEYTCDVEKRFRG [S22F] | 2.38 |
| SMQCKVILLDGSEYTCDVEKRYRG [S22Y] | 2.38 |
| SMQCKVILLDGSEYTCDVEKRWRG [S22W] | 2.11 |
| SMQCKVILLDGSEYTCDVEKRSRW [G24W] | 2.88 |
| SMQCKVILLDGSEYTCDVEKRSRE [G24E] | 3 |
| SMQCKVILLDGSEYTCDVEKRSRF [G24F] | 2.47 |
| SMQCKVILLDGSEYTCDVEKRSRA [G24A] | 3.43 |

| Variant | protein stability index |
| --- | --- |
| SMQCKVILLDGSEYTCDVEKRSRH [G24H] | 2.47 |
| SMQCKVILLDGSEYTCDVEKRSRI [G24I] | 1.98 |
| SMQCKVILLDGSEYTCDVEKRSRC [G24C] | 2.56 |
| SMQCKVILLDGSEYTCDVEKRSRV [G24V] | 2.83 |
| SMQCKVILLDGSEYTFDVEKRSRG [C16F] | 2.66 |
| SMQCKVILLDGSEYTVDVEKRSRG [C16V] | 3.7 |
| SMQCKVILLDGSEYTHDVEKRSRG [C16H] | 3.53 |
| SMQCKVILLDGSEYTNDVEKRSRG [C16N] | 2.84 |
| SMQCKVILLDGSEYTLDVEKRSRG [C16L] | 2.23 |
| SMQCKVILLRGSEYTCDVEKRSRG [D10R] | 2.03 |
| SMQCKVILLYGSEYTCDVEKRSRG [D10Y] | 1.77 |
| SMQCKVILLTGSEYTCDVEKRSRG [D10T] | 2.75 |
| SMQCKVILLKGSEYTCDVEKRSRG [D10K] | 3.15 |
| SMQCKVILLVGSEYTCDVEKRSRG [D10V] | 1.62 |
| SMQCKVILLDGSEGTCDVEKRSRG [Y14G] | 3.69 |
| SMQCKVILLDGSELTCDVEKRSRG [Y14L] | 1.84 |
| SMQCKVILLDGSEVTCDVEKRSRG [Y14V] | 3.15 |
| SMQCKVILLDGSEDTCDVEKRSRG [Y14D] | 3.81 |
| SMQCKVILLDGSEITCDVEKRSRG [Y14I] | 2.74 |
| SMQCKVILLDGSEYTCDVEKVSRG [R21V] | 2.19 |
| SMQCKVILLDGSEYTCDVEKYSRG [R21Y] | 2.09 |
| SMQCKVILLDGSEYTCDVEKNSRG [R21N] | 1.92 |
| SMQCKVILLDGSEYTCDVEKTSRG [R21T] | 2.84 |
| SMQCKVILLDGSEYTCDVEKRSKG [R23K] | 3.39 |

| Variant | protein stability index |
| --- | --- |
| SMQCKVILLDGSEYTCDVEKRSFG [R23F] | 2.07 |
| SMQCKVILLDGSEYTCDVEKRSHG [R23H] | 3.31 |
| SMQCKVILLDGSEYTCDVEKRSCG [R23C] | 3.04 |
| SMQCKVILLDGSEYTCDVEKRSPG [R23P] | 2.51 |
| SMQCKVILLDGSEYTCDVEKRSLG [R23L] | 2.8 |
| SMQCKVILLDGSEYTCDVEKRSMG [R23M] | 2.72 |
| SMQCKVILLDISEYTCDVEKRSRG [G11I] | 1.99 |
| SMQCKVILLDTSEYTCDVEKRSRG [G11T] | 2.76 |
| SMQCKVILLDYSEYTCDVEKRSRG [G11Y] | 2.51 |
| SMQCKVILLDPSEYTCDVEKRSRG [G11P] | 3.22 |
| SMQCKVILLDASEYTCDVEKRSRG [G11A] | 2.58 |
| SMQCKVILLDRSEYTCDVEKRSRG [G11R] | 2.64 |
| SMQGKVILLDGSEYTCDVEKRSRG [C4G] | 4.33 |
| SMQSKVILLDGSEYTCDVEKRSRG [C4S] | 3.78 |
| SMQVKVILLDGSEYTCDVEKRSRG [C4V] | 3.17 |
| SMQDKVILLDGSEYTCDVEKRSRG [C4D] | 4.23 |
| SMQWKVILLDGSEYTCDVEKRSRG [C4W] | 2.32 |
| SMQFKVILLDGSEYTCDVEKRSRG [C4F] | 2.03 |
| SMQLKVILLDGSEYTCDVEKRSRG [C4L] | 2.04 |
| SMQCKVILLDGSEYTCDVECRSRG [K20C] | 2.15 |
| SMQCKVILLDGSEYTCDVEIRSRG [K20I] | 1.21 |
| SMQCKVILLDGSEYTCDVEMRSRG [K20M] | 2.04 |
| SMQCKVILLDGSEYTCDVEWRSRG [K20W] | 1.02 |
| SMQCKVILLDGSEYTCDVEVRSRG [K20V] | 2.11 |

| Variant | protein stability index |
| --- | --- |
| SMQCKVILLDGSEYTCDVEPRSRG [K20P] | 2.49 |
| SMQCKVILLDGKEYTCDVEKRSRG [S12K] | 3.51 |
| SMQCKVILLDGYEYTCDVEKRSRG [S12Y] | 1.78 |
| SMQCKVILLDGWEYTCDVEKRSRG [S12W] | 1.94 |
| SMQCKVILLDGREYTCDVEKRSRG [S12R] | 2.99 |
| SMQCKVILLDGHEYTCDVEKRSRG [S12H] | 2.34 |
| SMLCKVILLDGSEYTCDVEKRSRG [Q3L] | 1.49 |
| SMTCKVILLDGSEYTCDVEKRSRG [Q3T] | 2.48 |
| SMYCKVILLDGSEYTCDVEKRSRG [Q3Y] | 2.07 |
| SMACKVILLDGSEYTCDVEKRSRG [Q3A] | 2.9 |
| SMICKVILLDGSEYTCDVEKRSRG [Q3I] | 2.44 |
| SMWCKVILLDGSEYTCDVEKRSRG [Q3W] | 1.19 |
| SMDCKVILLDGSEYTCDVEKRSRG [Q3D] | 3.75 |
| SMRCKVILLDGSEYTCDVEKRSRG [Q3R] | 2.37 |
| SMQCKVILCDGSEYTCDVEKRSRG [L9C] | 2.79 |
| SMQCKVILADGSEYTCDVEKRSRG [L9A] | 3.6 |
| SMQCKVILTDGSEYTCDVEKRSRG [L9T] | 3.51 |
| SMQCKVILDDGSEYTCDVEKRSRG [L9D] | 4.09 |
| SMQCKVILRDGSEYTCDVEKRSRG [L9R] | 3.03 |
| SMQCKVILMDGSEYTCDVEKRSRG [L9M] | 3.2 |
| SMQCKVILPDGSEYTCDVEKRSRG [L9P] | 3.71 |
| SMQCKVILNDGSEYTCDVEKRSRG [L9N] | 3.92 |
